Drawing on patent US20060193821, “Aptamers to the human IL-12 cytokine family and their use as autoimmune disease therapeutics” (published 2006), this text covers binding result, Kd and IC50 for 23 molecules.

In series [1] the target is IL-12 (human, p35/p40 heterodimer) (Homo sapiens, UniProt P29459;P29460 SEQ:57-253,SEQ:23-328). As to the kind of experiment: filter; no significant binding.
Series [2] has as its target T1, IL-23 (human, p19/p40 heterodimer) (Homo sapiens, UniProt Q9NPF7;P29460 SEQ:20-189,SEQ:23-328). The series can be described thus: filter; SHMCK, tRNA. The following applies: tags: R&D Systems, carrier free. As for the experimental part: Monitoring Progress of rRfY Selection. Dot blot binding assays were performed throughout the selections to monitor the protein binding affinity of the pools. Trace ³²P-labeled RNA was combined with a dilution series of h-IL-23 and incubated at room temperature for 30 minutes in 1×SHMCK (20 mM Hepes, 120 mM NaCl, 5 mM KCl, 1 mM MgCl₂, 1 mM CaCl₂, pH 7.4) plus 0.1 mg/mL tRNA for a final volume of 20 μL. The binding reactions were analyzed by nitrocellulose filtration using a Minifold I dot-blot, 96-well vacuum filtration manifold (Schleicher & Schuell, Keene, N.H.). A three-layer filtration medium was used, consisting (from top to bottom) of Protran nitrocellulose (Schleicher & Schuell), Hybond-P nylon (Amersham Biosciences) and GB002 gel blot paper (Schleicher & Schuell). RNA that is bound to protein is captured on the nitrocellulose filter, whereas the non-protein bound RNA is captured on the nylon filter. The gel blot paper was included simply as a supporting medium for the other filters. Following filtration, the filter layers were separated, dried and exposed on a phosphor screen (Amersham Biosciences, Piscataway, N.J.) and quantified using a Storm 860 Phosphorimager® blot imaging system (Amersham Biosciences).
When a significant positive ratio of binding of RNA in the presence of h-IL-23 versus in the absence of h-IL-23 was seen, the pools were cloned using a TOPO TA cloning kit (Invitrogen, Carlsbad, Calif.) according to the manufacturer's instructions. For the h-IL-23 and X-IL-23 selections, the Round 8 pool templates were cloned, and 32 individual clones from each selections were assayed in a 1-point dot blot screen (+/−75 nM h-IL-23, as well as a separate screen at +/−75 nM h-IL-12). For the PN-IL-23 selection, the Round 10 pool was cloned and sequenced, and 8 unique clones were assayed for protein binding in a 1-point dot blot screen (+/−200 nM h-IL-23 and a separate screen at +/−200 nM h-IL-12). Subsequently, the Round 10 PN-IL-23 pool was re-cloned for further sequences, as well as the R12 PN-IL-23 pool, and the clones were assayed for protein binding in a 1 point do blot screen (+/−100 nM h-IL-23 or +/−200 nM h-IL-12).

Series [3] concerns the target T1, IL-23 (human, p19/p40 heterodimer). The series can be described thus: cell_activity; TransAM STAT3. The following applies: tags: R&D Systems, carrier free. On the procedure:
(§1) In summary, the cell-based assay was conducted by isolating the peripheral blood mononuclear cells (PBMCs) from whole blood using a Histopaque gradient (Sigma, St. Louis, Mo.). The PBMCs were cultured for 3 to 5 days at 37° C./5% CO₂ in Peripheral Blood Medium (Sigma) which contains PHA, supplemented with IL-2 (100 units/mL) (R&D Systems, Minneapolis, Minn.), to generate PHA Blasts. To test IL-23 aptamers, the PHA Blasts were washed twice with 1×PBS, then serum starved for four hours in RPMI, 0.20% FBS. After serum starvation, approximately 2 million cells were aliquotted into appropriately labeled eppendorf tubes. hIL-23 at a final constant concentration of 3 ng/mL (R&D Systems, Minneapolis, Minn.) was combined with a dilution series of various IL-23 aptamers as described in Example 1, and the cytokine/aptamer mixture was added to the aliquotted cells in a final volume of 100 μl and incubated at 37° C. for 10-12 minutes. The incubation reaction was stopped by adding 1 mL of ice-cold PBS with 1.5 mM Na₃VO₄. Cell lysates were made using the lysis buffer provided by the TransAM™ STAT 3 assay following the manufacturer's instructions. FIG. 20 depicts a flow summary of the protocol used for the cell based assay.
(§2) Full length clones from the rRfY selection described in Example 1A, and select minimized rRfY clones that were described in Example 2A. 1, were tested using the TransAM™ STAT3 activation assay. Table 34 summarizes the cell based assay data for IL-23 full length aptamers generated from the rRfY selections described in Example 1A. 1, each compared to the activity of their respective parent (full length) clone.

Series [4] shares this target. The series can be described thus: cell_activity; TransAM STAT3, PHA blasts. The settings on record: tags: R&D Systems. On the procedure:
as §1, §2

IL-12 (human, p35/p40 heterodimer), sequence (P29459 23-219, chain 1 of 2): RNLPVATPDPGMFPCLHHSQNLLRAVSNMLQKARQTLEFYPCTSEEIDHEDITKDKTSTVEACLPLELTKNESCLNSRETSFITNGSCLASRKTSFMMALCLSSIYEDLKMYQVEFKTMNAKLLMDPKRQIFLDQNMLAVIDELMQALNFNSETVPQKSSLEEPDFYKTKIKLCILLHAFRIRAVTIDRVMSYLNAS
IL-12 (human, p35/p40 heterodimer), sequence (P29460 23-328, chain 2 of 2): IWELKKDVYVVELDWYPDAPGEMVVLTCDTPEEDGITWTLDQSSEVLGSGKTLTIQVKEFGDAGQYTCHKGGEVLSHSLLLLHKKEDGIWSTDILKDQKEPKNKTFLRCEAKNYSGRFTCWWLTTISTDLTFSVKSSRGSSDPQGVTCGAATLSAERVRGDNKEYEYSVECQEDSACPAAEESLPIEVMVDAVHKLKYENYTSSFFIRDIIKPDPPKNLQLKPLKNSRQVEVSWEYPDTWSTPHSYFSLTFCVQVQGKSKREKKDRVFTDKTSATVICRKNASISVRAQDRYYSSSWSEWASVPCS
T1 sequence (Q9NPF7 20-189, chain 1 of 2): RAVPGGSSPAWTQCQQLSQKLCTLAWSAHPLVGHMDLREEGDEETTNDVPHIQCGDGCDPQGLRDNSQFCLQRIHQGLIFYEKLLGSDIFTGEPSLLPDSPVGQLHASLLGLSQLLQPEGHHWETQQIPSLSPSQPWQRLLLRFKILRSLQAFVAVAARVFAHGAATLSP
T1 sequence (P29460 23-328, chain 2 of 2): as the sequence (P29460 23-328, chain 2 of 2) above

B1: AMX91-H7 (ssRNA)
RNA: GGGAAAAGCGAAUCAUACACAAGACUUAUCGCCUCAAGGGGGGUAAUAAACCCAGCGUGUGCAUGCUCCGCCAGAGACCAACCGAGAA
modifications: 2'-F C,U
Turning to B1, the binding result in series [1] is given as “no binding”. In series [2], this molecule returned a Kd of 71 nM. The molecule further returned an IC50 in series [3] of 50 nM.

B2: AMX91-G7 (ssRNA)
RNA: GGGAAAAGCGAAUCAUACACAAGACAUGACUGCAUGCUUCGGGAGUAUCUCGGUCCCGACGUUCGCUCCGCCAGAGACCAACCGAGAA
modifications: 2'-F C,U
As to B2, the binding result in series [1] is “no binding”. In series [2], this molecule registered a Kd of 63.6 nM. Also, half-maximal inhibition in series [3] (IC50) required 150 nM.

B3: AMX91-D9 (ssRNA)
RNA: GGGAAAAGCGAAUCAUACACAAGAGUGUAUUACCCCCAACCCAGGGGGACCAUUCGCGUAACAAGCUCCGCCAGAGACCAACCGAGAA
modifications: 2'-F C,U
B3: the binding result in series [1] is “no binding”. Besides, in series [2], the Kd amounted to 44.6 nM. Besides, the midpoint of inhibition in series [3], the IC50, lay at 150 nM.

B4: AMX86-G10 (ssRNA)
RNA: GGGAAAAGCGAAUCAUACACAAGAGUCAUGGCUUACAAUUGAAACAAGAGCUCGCGUGACACAUGCUCCGCCAGAGACCAACCGAGAA
modifications: 2'-F C and U, 2'-OH A and G
Take B4: the half-inhibitory concentration (IC50) in series [4] was around 2000 nM.

B5: AMX91-B5 (ssRNA)
RNA: GGGAAAAGCGAAUCAUACACAAGACAGUGUAUGAGGAAGAUUACUUCCAUUCCUGAGCGGUUUUCGCUCCGCCAGAGACCAACCGAGAA
modifications: 2'-F C and U, 2'-OH A and G
In turn, B5 returned an IC50 in series [4] of 1000 nM.

B6: AMX91-C12 (ssRNA)
RNA: GGGAAAAGCGAAUCAUACACAAGACGAUAGUAUGACCUUUUGAAAGGCUUCCCGAGCGGUGUUCGCUCCGCCAGAGACCAACCGAGAA
modifications: 2'-F C,U
Regarding B6, the binding result in series [1] was “no binding”. The Kd in series [2] stood at 30.7 nM. Besides, in series [3], inhibition was half-maximal at 50 nM (IC50).

B7: AMX91-H8 (ssRNA)
RNA: GGGAAAAGCGAAUCAUACACAAGAACGCAUAGUCGGAUUUACCGAUCAUUCUGUGCCUUCGUGACGCUCCGCCAGAGACCAACCGAGAA
modifications: 2'-F C and U, 2'-OH A and G
As for B7, the IC50 in series [4] is 3000 nM.

B8: AMX91-A6 (ssRNA)
RNA: GGGAAAAGCGAAUCAUACACAAGAUUGGCAAUGUGACCUUCAACCCUUUUCCCGAUGAACAGUGGCUCCGCCAGAGACCAACCGAGAA
modifications: 2'-F C and U, 2'-OH A and G
Molecule B8 gave a concentration for half-maximal inhibition (IC50) in series [4] of 3000 nM.

B9: AMX91-G11 (ssRNA)
RNA: GGGAAAAGCGAAUCAUACACAAGACUUAACAGUGCGGGGCGCAGUGUAUAGAUCCGCAAUGUGUGCUCCGCCAGAGACCAACCGAGAA
modifications: 2'-F C and U, 2'-OH A and G
Molecule B9 displayed an IC50 in series [4] of 3000 nM.

B10: AMX86-D6 (ssRNA)
RNA: GGGAAAAGCGAAUCAUACACAAGAUUAGGCGUCGUGACAAUAACUGGUCCACGAGCAUGUCAGUGCUCCGCCAGAGACCAACCGAGAA
modifications: 2'-F C and U, 2'-OH A and G
Take B10: the IC50 in series [4] is above 5000 nM.

B11: AMX91-H3 (ssRNA)
RNA: GGGAAAAGCGAAUCAUACACAAGACAUUGUGCUUUAUCACGUGGGUGAUAACGACGAAAGUUAUGCUCCGCCAGAGACCAACCGAGAA
modifications: 2'-F C,U
For the molecule B11, in series [1], the binding result is recorded as “no binding”. In series [2], this molecule registered a Kd of 266 nM. In addition, the IC50 in series [3] stood at 50 nM.

B12: AMX86-C5 (ssRNA)
RNA: GGGAAAAGCGAAUCAUACACAAGAGUUUUAUGUGGGUCCCGAUGAUUAACUUUAUUGGCGCAUUGCUCCGCCAGAGACCAACCGAGAA
modifications: 2'-F C and U, 2'-OH A and G
Turning to B12, the IC50 in series [4] came out at 3000 nM.

B13: AMX91-F11 (ssRNA)
RNA: GGGAAAAGCGAAUCAUACACAAGACGCGUCAGGUCCACGCUGAAAUUUAUUUUCGGCAGUGUAAGCUCCGCCAGAGACCAACCGAGAA
modifications: 2'-F C and U, 2'-OH A and G
The molecule B13 displayed an IC50 in series [4] of 5000 nM.

B14: AMX86-B10 (ssRNA)
RNA: GGGAAAAGCGAAUCAUACACAAGAGAACGAGUAUAUUUGCGCUGGCGGAGAAGUCUCUCGAAGGGAGCUCCGCCAGAGACCAACCGAGAA
modifications: 2'-F C and U, 2'-OH A and G
For B14, the IC50 in series [4] came out at 800 nM.

B15: AMX91-B8 (ssRNA)
RNA: GGGAAAAGCGAAUCAUACACAAGAAUCCUGGCUUCGCAUAGUGUAUGGGUAGUACGACAGCGCGUGCUCCGCCAGAGACCAACCGAGAA
modifications: 2'-F C and U, 2'-OH A and G
B15 showed an IC50 in series [4] of 450 nM.

B16: AMX84-E12 (ssRNA)
RNA: GGGAAAAGCGAAUCAUACACAAGAAGUUUUUGUGCUCUGAGUACUCAGCGUCCGUAAGGGAUAUGCUCCGCCAGAGACCAACCGAGAA
modifications: 2'-F C and U, 2'-OH A and G
B16: in series [4], the IC50 was above 1000 nM.

B17: AMX86-D5 (ssRNA)
RNA: GGGAAAAGCGAAUCAUACACAAGAGAGGUAUGUGGUUUUGCGGAGCAACUCGUGUCAGCGGUCAGCUCCGCCAGAGACCAACCGAGAA
modifications: 2'-F C and U, 2'-OH A and G
As to B17, the IC50 in series [4] was above 5000 nM.

B18: AMX84-A11 (ssRNA)
RNA: B17 RNA
modifications: 2'-F C and U, 2'-OH A and G
With B18, the IC50 in series [4] is above 5000 nM.

B19: AMX84-C11 (ssRNA)
RNA: GGGAAAAGCGAAUCAUACACAAGAAUGGUCGGAAUCUCUGGCGCCACGCUGAGUAUAGACGGAAGCUCCGCCAGAGACCAACCGAGAA
modifications: 2'-F C and U, 2'-OH A and G
As to B19, the IC50 in series [4] stood at 800 nM.

B20: AMX91-G9 (ssRNA)
RNA: GGGAAAAGCGAAUCAUACACAAGAAUUGUGCUUACAACUUUCGUUGUACCGACGUGUCAGUUAUGCUCCGCCAGAGACCAACCGAGAA
modifications: 2'-F C,U
In the case of B20, the binding result in series [1] was “no binding”. In series [2], this molecule yielded a Kd of 33 nM. Further, 50 nM corresponded to half-maximal inhibition in series [3] (IC50).

B21: AMX84-G11 (ssRNA)
RNA: GGGAAAAGCGAAUCAUACACAAGAGUGCUUCGUAUGUUGAAUACGACGUUCGCAGGACGAAUAUGCUCCGCCAGAGACCAACCGAGAA
modifications: 2'-F C,U
With B21, the binding result in series [1] is reported as “no binding”. The molecule further registered a Kd in series [2] of 291 nM. The molecule further registered an IC50 in series [3] of 250 nM.

B22: AMX91-E3 (ssRNA)
RNA: GGGAAAAGCGAAUCAUACACAAGAUUACUCCGUUAGUGUCAGUUGACGGAGGGAGCGUACUAUUGCUCCGCCAGAGACCAACCGAGAA
modifications: 2'-F C and U, 2'-OH A and G
With B22, the IC50 in series [4] is above 5000 nM.

B23: AMX91-G1 (ssRNA)
RNA: GGGAAAAGCGAAUCAUACACAAGAUAUGUGCCUGGGAUGGACGACAUCCCCUGUCUAAGGAUAUGCUCCGCCAGAGACCAACCGAGAA
modifications: 2'-F C and U, 2'-OH A and G
In the case of B23, it took 2000 nM to reach half-maximal inhibition in series [4] (IC50).
